{"source": "patent US20140147464A1", "about": "“METHOD AND COMPOSITION FOR INDUCING AUTOPHAGY” (NATIONAL YANG-MING UNIVERSITY, priority 2012, published 2014)", "key": {"NGF": {"tested_on": "NGF", "assay": "NGF expression and release in primary astrocyte cultures (RT-PCR, real time PCR, western blot)", "assay_type": "cell-based, C57BL/6J mice", "details": "primary astrocytes, 6 hours", "protocol": "Astrocyte-enriched cultures were prepared from post-natal one day-old C57BL/6J mice obtained from the Animal Center at the National Yang Ming University, Taiwan. Briefly, cortical tissue was digested with trypsin. The resultant dissociated cells were suspended in DMEM containing 10% FBS and incubated in 100-mm culture dishes. After 3 days in culture, cells were re-fed with fresh 10% FBS/DMEM and maintained at 37° C. for an additional 3 days. The cells were dissociated with trypsin, suspended in 10% FBS/DMEM and incubated in a 10-cm dish for 7-8 days prior to use. Astrocytes prepared by this method consisted of approximately 90-95% astrocytes as determined by immunochemical staining with an antibody against glial fibrillary acidic protein (GFAP), a specific marker for astrocytes. Neural stem cell cultures were prepared from 1 day-old C57BL/6J mice. Cells obtained by trypsinization of cortical tissue were suspended in 100 ml DMEM/F12 medium (2×10^5 cells/ml) containing 1% N2, 20 ng/ml EGF, 20 ng/ml bFGF and […] BSA in 1 L roller bottles for 7 days for the formation of neurospheres. The neurospheres were examined with an antibody against nestin, a specific marker for neural stem cells. […]\nRNA was prepared using RNA-Bee™ RNA isolation reagent (Tel-test, Friendswood, Tex.). […] Relative gene expression levels were calculated with the 2^−ΔΔCT method. […]"}, "PC12 cells": {"tested_on": "PC12 cells", "assay": "PC12 bioassay of neurite outgrowth with astrocyte-conditioned medium", "assay_type": "cell-based", "details": "24 h", "protocol": "To evaluate neurite outgrowth, PC12 cells were plated at a low density (2×10^4 cells per cm^2) onto poly-D lysine-coated 24-well plates. After 24 h, the adherent PC12 cells were washed with PBS and incubated with conditioned medium derived from either untreated or Ganoderma lucidum-treated astrocyte cultures to monitor neurite outgrowth (using a low serum condition in DMEM containing 1% FBS). Eight to ten images per group were photographed under light microscopy, and the percentage of cells with neurites that exceeded (the percentage of cells with neurites exceeding) the diameter of cell body was analyzed by examining 100-200 cells per image. Images were analyzed by an operator blinded to the experimental conditions. For the preparation of ACM, astrocytes were treated with Ganoderma lucidum for 24 hours and were washed with PBS and fed with low serum medium (without Ganoderma lucidum). After 24 hours, the medium was centrifuged at 200×g for 20 mins to remove cell debris, and the supernatant was collected as the ACM and used immediately. Murine NGF 100 ng/ml (Promega Biotech Co., Ltd, USA) was used as positive control."}, "[1]": {"tested_on": "mHtt74Q-expressing PC12 cell", "assay": "Autophagy in HD cell model: MDC staining and western blot of LC3-II", "assay_type": "cell-based", "protocol": "Mammalian expression vectors comprising EGFP (pEGFP-C1, Clontech) fused at its C terminus with an HD gene exon 1 fragment with 74 polyglutamine repeats (mHtt-74Q) was a gift from Dr. David C. Rubinsztein's laboratory. The PC12 stable cells were maintained in 100 µg/ml hygromycin in standard medium consisting of DMEM with 100 U/ml penicillin/streptomycin, 2 mM L-glutamine, 10% heat-inactivated horse serum, 5% FBS and 200 ug/ml G418 at 37° C., 5% CO2. The cells were seeded at 2×10^5 per well in 12-well plates and were induced expression of mHtt-74Q with 200 ng/ml doxycycline for 24 h. The expression of transgenes was switched off by removing doxycycline from the medium. […] They were either fixed with 1% paraformaldehyde for 20 mins for FACS analysis (BD Biosciences) of EGFP fluorescence of mHtt-74Q followed by analysis of mean fluorescence intensity of 10,000 events by Cellquest software (BD Biosciences) or processed for real time PCR analysis. […] The samples were mounted and analyzed using a fluorescence microscope (Olympus IX-70 and POT2, USA) with excitation wave of 335 nm and emission of 525 nm. The intensity of the color staining reflected the level of autophagic activity, which was measured with an Image-Pro Plus Analysis system (Media Cybernetics, Bethesda, USA). To quantify MDC punctae, at least 4 random fields were imaged and the average number of punctae area per cell was calculated. […]"}, "[2]": {"tested_on": "mHtt74Q-expressing PC12 cell", "assay": "mHtt-74Q aggregation in HD cell model by FACS analysis of EGFP fluorescence", "assay_type": "cell-based", "protocol": "Mammalian expression vectors comprising EGFP (pEGFP-C1, Clontech) fused at its C terminus with an HD gene exon 1 fragment with 74 polyglutamine repeats (mHtt-74Q) was a gift from Dr. David C. Rubinsztein's laboratory. The PC12 stable cells were maintained in 100 µg/ml hygromycin in standard medium consisting of DMEM with 100 U/ml penicillin/streptomycin, 2 mM L-glutamine, 10% heat-inactivated horse serum, 5% FBS and 200 ug/ml G418 at 37° C., 5% CO2. The cells were seeded at 2×10^5 per well in 12-well plates and were induced expression of mHtt-74Q with 200 ng/ml doxycycline for 24 h. The expression of transgenes was switched off by removing doxycycline from the medium. […] They were either fixed with 1% paraformaldehyde for 20 mins for FACS analysis (BD Biosciences) of EGFP fluorescence of mHtt-74Q followed by analysis of mean fluorescence intensity of 10,000 events by Cellquest software (BD Biosciences) or processed for real time PCR analysis. […] The samples were mounted and analyzed using a fluorescence microscope (Olympus IX-70 and POT2, USA) with excitation wave of 335 nm and emission of 525 nm. The intensity of the color staining reflected the level of autophagic activity, which was measured with an Image-Pro Plus Analysis system (Media Cybernetics, Bethesda, USA). To quantify MDC punctae, at least 4 random fields were imaged and the average number of punctae area per cell was calculated."}}}
{"molecule": "Ganoderic acid C2", "values": [{"measurement": "NGF mRNA expression", "setting": "NGF", "value": "particularly marked"}, {"measurement": "neurite outgrowth activity", "setting": "PC12 cells", "value": "particularly marked"}]}
{"molecule": "NGF: Nerve growth factor; murine NGF (Promega) used as positive control (protein, UniProt P01139 122-241, looked up, Beta-nerve growth factor, Nerve growth factor; murine NGF (Promega) used as positive control) Beta-nerve growth factor: SSTHPVFHMGEFSVCDSVSVWVGDKTTATDIKGKEVTVLAEVNINNSVFRQYFFETKCRASNPVESGCRGIDSKHWNSYCTTTHTFVKALTTDEKQAAWRFIRIDTACVCVLSRKATRRG", "values": [{"measurement": "MDC intensity", "setting": "[1]", "value": "enhanced MDC stain"}, {"measurement": "autophagic activity (MDC staining, LC3-II western blot)", "setting": "[1]", "value": "up-regulated"}, {"measurement": "mHtt-74Q accumulation", "setting": "[2]; HD cell model, FACS analysis", "value": "reduction in mHtt-74Q accumulation"}, {"measurement": "fluorescence distribution of cells expressing mHtt-74Q (aggregates)", "setting": "[2]; NGF 50 ng/ml", "value": "reduced aggregates"}]}
